Where no end group is shown, it is not given here.
B1: recombinant S. solfataricus inhibitor Sso0767 (SsCEI) (other)
chain: MNSESIYSMRVVSSAFKNEDFIPIKYTCDGQDLSPELEWDLVTNAKSYAIIVEDPDAPGGTFIHWVIYNITTNRLPEGVPRLYKSQYGVQGVNDFGNIGYNGPCPPKTHPPHRYYFYVYAIDTILLEIKNINADKLKSLMEGHGIERGFVMGKYKRK
notes: The filling uses Sso0767, Sso1273 and SsCEI for the same protein; also called Sso1273; not shown: C-terminal His tag from expression vector pET-28
B2: Compound 4 or SsCEI 4 (peptide)
peptide: TILAEIKNINAD-NH2
notes: also called Peptide 4
B3: Compound 3 or SsCEI 3 (peptide)
peptide: YAIDTILAEIKNINAD-NH2
notes: also called Peptide 3

Experiments:
[1] = target: T1, human acylamino-acid-releasing enzyme (AARE or APEH) (human, UniProt P13798 1-732, limits assumed); assay: cell-based or functional assay
T1 sequence (looked up): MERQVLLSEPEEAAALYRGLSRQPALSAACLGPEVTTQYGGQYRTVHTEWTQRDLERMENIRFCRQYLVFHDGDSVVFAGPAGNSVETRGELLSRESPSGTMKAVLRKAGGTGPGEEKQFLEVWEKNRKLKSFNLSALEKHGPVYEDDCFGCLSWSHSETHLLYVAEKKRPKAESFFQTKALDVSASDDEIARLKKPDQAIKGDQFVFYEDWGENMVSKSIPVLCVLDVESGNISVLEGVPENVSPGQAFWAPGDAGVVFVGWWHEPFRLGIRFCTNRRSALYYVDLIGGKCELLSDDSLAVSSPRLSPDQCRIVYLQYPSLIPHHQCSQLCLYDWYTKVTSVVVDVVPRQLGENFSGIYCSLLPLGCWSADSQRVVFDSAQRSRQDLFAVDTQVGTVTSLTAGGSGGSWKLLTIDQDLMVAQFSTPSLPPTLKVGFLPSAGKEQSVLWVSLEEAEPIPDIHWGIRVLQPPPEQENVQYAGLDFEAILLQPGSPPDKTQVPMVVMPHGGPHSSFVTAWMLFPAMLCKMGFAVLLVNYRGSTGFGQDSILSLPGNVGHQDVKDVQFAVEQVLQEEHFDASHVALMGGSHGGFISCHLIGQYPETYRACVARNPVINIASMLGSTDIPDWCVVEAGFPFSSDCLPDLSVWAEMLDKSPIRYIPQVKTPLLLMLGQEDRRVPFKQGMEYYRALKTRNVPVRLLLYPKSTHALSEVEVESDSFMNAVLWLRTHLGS

[2] = target: T2, bovine alpha-chymotrypsin (bovine, UniProt P00766 1-13; P00766 16-146; P00766 149-245); assay: cell-based or functional assay
[3] = target: T3, porcine elastase (porcine, UniProt P00772 27-266); assay: cell-based or functional assay
T3 sequence (P00772 27-266 limits assumed): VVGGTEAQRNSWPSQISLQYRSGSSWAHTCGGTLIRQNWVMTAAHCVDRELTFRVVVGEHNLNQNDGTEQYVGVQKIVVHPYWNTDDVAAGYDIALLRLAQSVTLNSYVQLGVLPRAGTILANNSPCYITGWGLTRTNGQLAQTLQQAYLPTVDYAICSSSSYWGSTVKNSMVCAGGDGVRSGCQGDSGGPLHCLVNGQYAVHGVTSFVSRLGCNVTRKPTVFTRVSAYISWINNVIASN

[4] = target: T3, porcine elastase; assay: enzyme inhibition kinetics, double reciprocal plot
[5] = target: T2, bovine alpha-chymotrypsin; assay: cell-based or functional assay; remark: listed apart in the source
[6] = target: T3, porcine elastase; assay: cell-based or functional assay; remark: listed apart in the source
[7] = target: T2, bovine alpha-chymotrypsin; assay: enzyme inhibition kinetics, double reciprocal (Lineweaver-Burk) plot, competitive inhibition
Procedure: The reciprocals of the rate of the substrate hydrolysis for each inhibitor concentration were plotted against the reciprocals of the substrate concentrations. Ki was determined from the formula as per the competitive type of inhibition.

[8] = target: T4, porcine acylamino-acid-releasing enzyme (AARE or APEH) (porcine, UniProt P19205 1-732, limits assumed); assay: cell-based or functional assay
T4 sequence (looked up): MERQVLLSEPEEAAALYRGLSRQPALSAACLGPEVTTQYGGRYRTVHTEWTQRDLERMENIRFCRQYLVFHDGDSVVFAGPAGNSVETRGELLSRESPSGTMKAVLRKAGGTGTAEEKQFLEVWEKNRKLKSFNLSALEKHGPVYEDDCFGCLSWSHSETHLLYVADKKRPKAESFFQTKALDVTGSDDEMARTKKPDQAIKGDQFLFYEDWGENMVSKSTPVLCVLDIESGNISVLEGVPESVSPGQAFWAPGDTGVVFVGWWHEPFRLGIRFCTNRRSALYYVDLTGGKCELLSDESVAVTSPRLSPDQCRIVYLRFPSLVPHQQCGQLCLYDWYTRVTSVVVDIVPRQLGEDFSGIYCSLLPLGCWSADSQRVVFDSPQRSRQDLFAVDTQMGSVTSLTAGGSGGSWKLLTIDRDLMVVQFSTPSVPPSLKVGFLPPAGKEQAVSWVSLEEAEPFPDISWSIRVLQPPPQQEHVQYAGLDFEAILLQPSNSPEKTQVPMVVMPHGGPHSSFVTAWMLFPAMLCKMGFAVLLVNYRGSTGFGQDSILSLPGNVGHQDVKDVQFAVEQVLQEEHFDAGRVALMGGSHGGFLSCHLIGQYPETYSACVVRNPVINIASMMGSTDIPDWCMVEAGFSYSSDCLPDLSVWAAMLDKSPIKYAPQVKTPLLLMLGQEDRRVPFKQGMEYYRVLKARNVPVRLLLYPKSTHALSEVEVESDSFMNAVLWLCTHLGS

[9] = target: T4, porcine acylamino-acid-releasing enzyme …; assay: enzyme inhibition kinetics, Lineweaver-Burk plot, competitive inhibition
[10] = target: T1, human acylamino-acid-releasing enzyme …; assay: cell-based or functional assay; remark: listed apart in the source
[11] = target: T4, porcine acylamino-acid-releasing enzyme …; assay: cell-based or functional assay; remark: listed apart in the source
[12] = target: T4, porcine acylamino-acid-releasing enzyme …; assay: enzyme inhibition kinetics with N-acetyl-Ala-pNA as substrate

Row | Binder | IC50 value at 37° C. [1] [µM] | IC50 value (50% inhibitory concentration) [2] [µM] | IC50 value [3] [µM] | Ki [4] [µM] | IC50 [5] [µM] | IC50 [6] [µM] | Ki [7] [µM] | IC50 [8] [µM] | Ki [9] [µM] | IC50 [10] [µM] | IC50 values [11] [µM] | Ki [12] [µM]
1 | B1 | 0.02 | 0.1 | 0.15 | 0.1 | 0.025 | 0.04 | 0.08 | – | – | – | – | –
2 | B2 | – | – | – | – | – | – | – | 35 | 4 | 35 | – | –
3 | B3 | – | – | – | – | – | – | – | 25 | – | 25 | 20 | 20

Source: patent US20110275569A1 (CONSIGLIO NAZIONALE DELLE RICERCHE, published 2011)
